“Also recorded” adds a separate entry of the source.
T1: ldLIMP2 (Homo sapiens, UniProt Q14108)
T1 construct: Purified luminal domain LIMP-2 (1d-LIMP2) was custom made (Sino Biological Inc., PRC.); purchased Sino Biological Inc
T1 sequence (Q14108 28-433 limits assumed): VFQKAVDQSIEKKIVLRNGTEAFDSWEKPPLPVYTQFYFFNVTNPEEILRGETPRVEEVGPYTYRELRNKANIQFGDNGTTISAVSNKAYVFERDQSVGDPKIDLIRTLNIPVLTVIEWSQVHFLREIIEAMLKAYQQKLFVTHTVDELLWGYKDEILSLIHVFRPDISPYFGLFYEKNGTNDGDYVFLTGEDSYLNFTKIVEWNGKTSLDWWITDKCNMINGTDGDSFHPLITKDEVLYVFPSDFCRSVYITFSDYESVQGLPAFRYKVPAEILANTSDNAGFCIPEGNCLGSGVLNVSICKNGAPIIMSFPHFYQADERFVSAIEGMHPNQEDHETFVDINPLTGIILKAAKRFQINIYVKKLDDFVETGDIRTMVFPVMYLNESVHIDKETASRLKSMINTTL


Legend:
[1] = test system: Gba1−/− cells; experiment: Proportion of GCase protein in cells and media; type: cell-based, mouse; conditions: for % Secreted: ng GCase in media / (ng in media + ng in lysates) × 100
Excerpt: (§1) FIG. 11A-FIG. 11C: Secretion and retention of GCase with alanine variants in the TDK (FIG. 11A) or DSPIIV (SEQ ID NO 15) (FIG. 11B and FIG. 11C) sequences. FIG. 11A depicts activities in the media of Gba1−/− fibroblasts following transient transfections of each of the specified alanine substituted GCases in the TDK region. […] FIG. 11B depicts in the Left Panel: Activities in the media following transient transfections of various DSPIIV (SEQ ID NO 15) alanine substituted GCases and the % of GCase secreted. The latter was calculated as {ng GCase (in media)/[ng GCase (in media)+ng (GCase in lysates)]}×100 (also see Table 2). […] The transfections alone (Null+lipo) had no effect. […] FIG. 11C deicts in cellular lysate GCase activities from the various alanine substituted GCases in the DSPIIV (SEQ ID NO 15) sequence as indicated. […] The doubly alanine substituted GCase had little intracellular activity, i.e., nearly all the GCase was secreted into the media.

[2] = test system: Gba1 null/null mouse fibroblasts; experiment: Immunofluorescence co-localization of expressed GCase constructs (lysosome vs ER/Golgi); type: cell-based; conditions: for localization of GCase DSPIIV variants to the lysosome (Lamp1 / LIMP-2 co-localization), in words: transient transfection, FIG. 10A
Excerpt: Immunofluorescence studies (IF): Mouse Gba1 null/null were used for the host cells for all transfection experiments. pCMV-AC-GFP Mammalian cell expression vector was used for expression of various GCases that included the TKD region (amino acids 407, 408 and 409) or the DSPIIV (SEQ ID NO 15) region (amino acids 399-404). Direct-labeled first antibodies were applied for IF detection; including anti-human GCase, -Calreticulin, -calnexin, -LIMP2, and -Lamp1. Lysotracker and ER tracker (Invitrogen) were also used as indicated. Analyses were done with a Zeiss AxioVert 200M with ApoTome. Co-localization analyses to obtain Pearson Indices were conducted using a module in the Axiovision 4.8 software.
Initial studies to localize the targeting peptide were conducted with GCase-GFP fusion constructs that had COOH-terminal deletions of GCase (FIG. 1). The constructs are designated as GCase-XX or XXX where the Xs represent the number of GCase amino acids deleted from the COOH-terminus. These constructs were transfected into and expressed in Gba1 null/null mouse fibroblasts using the CMV promoter (pCMV-AC-GFP or YFP) Immunofluorescence analyses using anti-human GCase IgG (green) and Lysotracker (Red) were used for colocalization of GCase to the lysosome (Red) or GCase (green) and Calreticulin or Calnexin (Red) for colocalization to the ER or Golgi (FIG. 2). […] Since LIMP-2 is the receptor for targeting of GCase to the lysosome, our working hypothesis was that the peptide sequence for binding of GCase to LIMP-2 was located within amino acids 347-422.

[3] = molecular target: T1, ldLIMP2; experiment: Immunoprecipitation of alanine substituted GCases (TKD sequence) with ldLIMP2; type: binding; conditions: GCase:LIMP2 1:1, immunoblot, FIG. 6
Excerpt: FIG. 6A-6E: Immunoprecipitation of the alanine substituted GCases in the TKD sequence with ldLIMP2. In panels shown in FIG. 6A to FIG. 6D, the lanes 1 through 6 correspond to the band densities indicated by the bars in FIG. 6E. […] The quantitative results are shown in (FIG. 6E) in which 1, 2, 3, and 4 correspond to WT, AAA, AKA, and AKD, respectively.
Immunoprecipitation of GCases with mutations in the TKD sequence: For immunoblots, Gba1 knockout mouse fibroblasts (null/null) were transfected with the GBA1 constructs (WT or mutants) and expressed for 5 days. The GCases from harvested cell lysates were purified using a GCase antibody affinity column (Dynabeads protein G crosslinked (BS3) with rabbit anti-human GCase antibody). The purified GCases were then mixed with LIMP2 (1:1), incubated (30 min.), and applied to another affinity column (Dynabeads protein G crosslinked (BS3) with rabbit anti-LIMP2 antibody). Aliquots of each step (loading, wash and eluent) were collected and analyzed on 12.5% SDS gels. Immunoblots were developed using anti-human GCase antibody and AP conjugated color development kits. Mock experiments with either non-LIMP2 proteins added or no GCases added, were used as control. The quantitations of these immunoprecipitation data were obtained from densitometry measurements of the gels. The no-LIMP-2 bars are the controls for comparison, since GCase was processed through all steps without LIMP-2 to account for any losses of GCase; About 50% of the GCase was lost during processing.

[4] = test system: Gba1−/− fibroblasts; experiment: GCase activity in media and cell lysates after transient transfection (secretion and retention); type: cell-based, mouse; conditions: for GCase activity in the media / secretion, in words: FIG. 11A, 11B
Excerpt: as §1
(§2) Enzyme Assays: Cell pellets were homogenized in 0.25% Na-taurocholate and 0.25% Triton X-100. GCase activities were determined fluorometrically with 4 mM 4MU-Glc in 0.2M/0.1M citric-phosphate, pH 5.6 (18, 54)

[5] = CRIM specific activity of GCase variants (activity per cross-reacting immunological material); type: biochemical; conditions: FIG. 11B right panel
Procedure: as §2
Corresponding effects on the secretion of GCases from the cells containing various mutations in DSPIIVDITDK were found by assessing the activity of GCases in the media and cell lysate (FIG. 11 A-C). […] Using this assessment, the ratio of CRIM specific activities relative to WT (assigned 100%) for AAA, TAD, and AKA were 20%, 32%, and 49%, respectively (FIG. 11A, right panel), or that more GCase protein was required from the respective mutants to achieve the same enzyme activity as the WT. […] For the other mutants this ranged from 22-36%. This compares to ˜0% for the WT or D399E GCases Immunoaffinity anti-GCase column purification of the various GCases from media confirmed the excesses of these mutant GCases and the inability to detect WT or D399E GCases in media (data not shown).

| Molecule | Total GCase ([1]; cellular + media, mean ± SD, n = 3) | % Secreted [1] | Cellular GCase ([1]; total ng, mean ± SD, n = 3) | Media GCase ([1]; total ng, mean ± SD, n = 3) | localization of GCase DSPIIV variants to the lysosome (Lamp1 / LIMP-2 co-localization), in words ([2]; listed as WT) | binding of GCase variant to ldLIMP2, in words ([3]; listed as WT) | enzyme localized to the lysosome ([2]; TKD sequence variants, FIG. 5) | binding of GCase variant to ldLIMP2, in words [3] | GCase activity in the media / secretion, in words [4] | CRIM specific activity, in words [5] | Pearson Indices for co-localization to the lysosome, in words ([2]; DSPIIV variants, FIG. 10B) | localization of GCase DSPIIV variants to the lysosome (Lamp1 / LIMP-2 co-localization), in words [2] | localization of GCase DSPIIV variants to the lysosome (Lamp1 / LIMP-2 co-localization), in words ([2]; listed as E399) | localization of GCase DSPIIV variants to the lysosome (Lamp1 / LIMP-2 co-localization), in words ([2]; listed as ESPIIV) | GCase activity in cell lysates, in words ([4]; cell lysates, FIG. 11C) | GCase activity in the media / secretion, in words ([4]; listed as E399) | GCase activity in the media / secretion, in words ([4]; listed as ESPIIV) |
| --- | --- | --- | --- | --- | --- | --- | --- | --- | --- | --- | --- | --- | --- | --- | --- | --- | --- |
| Human WT: wild type human GCase (acid β-glucosidase, SEQ ID NO 2) expressed in Gba1−/− cells (protein, listed as Homo sapiens) ARPCIPKSFGYSSVVCVCNATYCDSFDPPTFPALGTFSRYESTRSGRRMELSMGPIQANHTGTGLLLTLQPEQKFQKVKGFGGAMTDAAALNILALSPPAQNLLLKSYFSEEGIGYNIIRVPMASCDFSIRTYTYADTPDDFQLHNFSLPEEDTKLKIPLIHRALQLAQRPVSLLASPWTSPTWLKTNGAVNGKGSLKGQPGDIYHQTWARYFVKFLDAYAEHKLQFWAVTAENEPSAGLLSGYPFQCLGFTPEHQRDFIARDLGPTLANSTHHNVRLLMLDDQRLLLPHWAKVVLTDPEAAKYVHGIAVHWYLDFLAPAKATLGETHRLFPNTMLFASEACVGSKFWEQSVRLGSWDRGMQYSHSIITNLLYHVVGWTDWNLALNPEGGPNWVRNFVDSPIIVDITKDTFYKQPMFYHLGHFSKFIPEGSQRVGLVASQKNDLDAVALMHPDGSAVVVVLNRSSKDVPLTIKDPAVGFLETISPGYSIHTYLWRRQ | 23 ± 4 ng | ~0% | 23 ± 4 ng | 0 ng | targeted to the lysosomes; also recorded: co-localization of GCase (FITC) with either Lamp 1 (Red) or LIMP-2 | nearly complete binding; also recorded: bound similarly |  |  |  |  |  |  |  |  |  |  |  |
| AKD: human GCase with TKD (407-409) replaced by AKD, as named in figure legends (protein, UniProt P04062 40-536, looked up, variant T407A) Lysosomal acid …: ARPCIPKSFGYSSVVCVCNATYCDSFDPPTFPALGTFSRYESTRSGRRMELSMGPIQANHTGTGLLLTLQPEQKFQKVKGFGGAMTDAAALNILALSPPAQNLLLKSYFSEEGIGYNIIRVPMASCDFSIRTYTYADTPDDFQLHNFSLPEEDTKLKIPLIHRALQLAQRPVSLLASPWTSPTWLKTNGAVNGKGSLKGQPGDIYHQTWARYFVKFLDAYAEHKLQFWAVTAENEPSAGLLSGYPFQCLGFTPEHQRDFIARDLGPTLANSTHHNVRLLMLDDQRLLLPHWAKVVLTDPEAAKYVHGIAVHWYLDFLAPAKATLGETHRLFPNTMLFASEACVGSKFWEQSVRLGSWDRGMQYSHSIITNLLYHVVGWTDWNLALNPEGGPNWVRNFVDSPIIVDIAKDTFYKQPMFYHLGHFSKFIPEGSQRVGLVASQKNDLDAVALMHPDGSAVVVVLNRSSKDVPLTIKDPAVGFLETISPGYSIHTYLWRRQ |  |  |  |  |  |  | about 50% | somewhat less binding | greatest increases |  |  |  |  |  |  |  |  |
| D399E: human GCase variant with charge conserved D399E (ESPIIV, SEQ ID NO 20) (protein) ARPCIPKSFGYSSVVCVCNATYCDSFDPPTFPALGTFSRYESTRSGRRMELSMGPIQANHTGTGLLLTLQPEQKFQKVKGFGGAMTDAAALNILALSPPAQNLLLKSYFSEEGIGYNIIRVPMASCDFSIRTYTYADTPDDFQLHNFSLPEEDTKLKIPLIHRALQLAQRPVSLLASPWTSPTWLKTNGAVNGKGSLKGQPGDIYHQTWARYFVKFLDAYAEHKLQFWAVTAENEPSAGLLSGYPFQCLGFTPEHQRDFIARDLGPTLANSTHHNVRLLMLDDQRLLLPHWAKVVLTDPEAAKYVHGIAVHWYLDFLAPAKATLGETHRLFPNTMLFASEACVGSKFWEQSVRLGSWDRGMQYSHSIITNLLYHVVGWTDWNLALNPEGGPNWVRNFVESPIIVDITKDTFYKQPMFYHLGHFSKFIPEGSQRVGLVASQKNDLDAVALMHPDGSAVVVVLNRSSKDVPLTIKDPAVGFLETISPGYSIHTYLWRRQ |  | ~0% |  |  |  |  |  |  | no media activity above background | minor change in CRIM specific activity | did not alter the co-localization compared to WT | targeted to the lysosomes | did not alter the cellular localization or secretion of GCase | co-localization of GCase (FITC) with either Lamp 1 (Red) or LIMP-2 | equal intracellular activities | did not alter the cellular localization or secretion of GCase | did not alter secretion |

Reference: patent US9738880B2, “Lysosomal protein targeting sequence and therapeutic applications of same” (Children's Hospital Medical Center, priority 2013, dated 2017)
